Article PMC7528653 (Nucleic Acids Research, 2020)
Blank lines part the entries; values can stand above or below the binder they belong to.

Columns and labels:
[1] = molecular target: T1, MSL1 (untagged, subunit of the DCCcore) (Drosophila melanogaster, UniProt P50535 1-1039); test: co-IP
T1 sequence: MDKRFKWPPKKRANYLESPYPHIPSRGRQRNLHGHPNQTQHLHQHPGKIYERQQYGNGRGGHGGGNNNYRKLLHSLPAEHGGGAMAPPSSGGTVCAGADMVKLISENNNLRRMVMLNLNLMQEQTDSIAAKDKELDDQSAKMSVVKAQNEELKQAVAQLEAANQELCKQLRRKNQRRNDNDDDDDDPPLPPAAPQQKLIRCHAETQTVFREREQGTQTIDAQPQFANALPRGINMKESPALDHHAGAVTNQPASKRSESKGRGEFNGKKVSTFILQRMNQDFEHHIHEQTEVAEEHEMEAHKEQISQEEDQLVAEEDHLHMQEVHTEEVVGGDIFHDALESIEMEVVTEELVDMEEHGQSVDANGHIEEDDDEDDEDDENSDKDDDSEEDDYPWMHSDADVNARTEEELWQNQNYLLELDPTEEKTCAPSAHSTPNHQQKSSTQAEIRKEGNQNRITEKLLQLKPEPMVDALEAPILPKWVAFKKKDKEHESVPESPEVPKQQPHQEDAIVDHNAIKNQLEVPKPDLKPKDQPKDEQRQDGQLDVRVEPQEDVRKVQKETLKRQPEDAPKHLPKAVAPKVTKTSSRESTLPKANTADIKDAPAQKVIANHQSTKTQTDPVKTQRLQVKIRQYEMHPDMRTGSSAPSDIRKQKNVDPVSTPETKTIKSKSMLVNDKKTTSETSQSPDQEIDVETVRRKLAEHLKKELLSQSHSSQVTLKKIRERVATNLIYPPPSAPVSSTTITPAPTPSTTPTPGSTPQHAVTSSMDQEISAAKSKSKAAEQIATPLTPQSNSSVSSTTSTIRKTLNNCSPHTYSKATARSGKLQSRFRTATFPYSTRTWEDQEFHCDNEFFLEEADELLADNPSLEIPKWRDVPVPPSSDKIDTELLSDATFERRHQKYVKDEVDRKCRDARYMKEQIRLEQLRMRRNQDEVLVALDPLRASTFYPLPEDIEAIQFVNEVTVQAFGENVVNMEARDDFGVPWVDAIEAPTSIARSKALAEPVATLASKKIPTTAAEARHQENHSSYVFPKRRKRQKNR

[2] = molecular target: MLE-FLAG (maleless DExH helicase, wild-type) (Drosophila melanogaster, UniProt P24785 1-1293); test: co-IP

binding result [1]: binds
B1: MSL3 with an N-terminal hexahistidine tag (natural protein)
chain: MTELRDETPLFHKGEIVLCYEPDKSKARVLYTSKVLNVFERRNEHGLRFYEYKIHFQGWRPSYDRCVRATVLLKDTEENRQLQRELAEAAKLQIRGDYSYKGTPDKPSAKKKRGGKAAHVEEPIVVPMDTGHLEAEHEMAPTPRAAGNRTRDNSGGKRKEKPPSGDGRLKGNRGRQTETFYNNAINDVSVYNHVPQEDRIMMRVSERLRELIEYDRNMIKVLGKQHALPARVPIVTIMENFVKQQAVELAISIKQDSSRARNTQSRNARMEREYDRVMSTVCMLKEVVDGLRIYFEFHVDDHLLYTEEKEYVHNYLTDDNMRNCSLILNKSYEYINPSGDTELIGLDGTPVVEGSGDTNGQIGVINIGGPEYEKQLQKCLLYIVTASGKNTAQAYERTSPYTAAYKLPVEMRGFLNETFKWRLLSAESPPEKSMVFGAPHLVRLMIKMPMFLNASPISNKKLEDLLPHLDAFINYLENHREWFDRENFVNSTALPQEDLQRELLDSLDGIAA

binding result [2]: binds
B2: DCC DNA-binding module (MSL2-FLAG and MSL1 Δ865-1039) (complex)
chain 1: MAQTAYLKVTRIAMRSASNLSKRRVEELNSGLGELRQLLSCVVCCQLLVDPYSPKGKRCQHNVCRLCLRGKKHLFPSCTQCEGCSDFKTYEENRMMAAQLLCYKTLCVHLLHSALFGELAGMRPQVARELVPRIKLPPKTTQEFIREGSNISDTFDIFLPQPDLPFLKDMPTSLPAETPPTSAVTTPELPYDHHLNISDIEAEAAATAEQGHFSPLPLLPTGSRMGMLSHAGQIVIATESSESGFMDQAWTDQVDLSGTVSVSKYTNSGNNFAVSYVMPTSATTKFDPQELQIGQVVQMADSTQLAVLAAVEETVETSTQLTVLSTTVEETVETSTQLEVLTSAEEPNEISDQLANLQVEESDEALVEETVEEAEGTSIPSEVVAEHMEEDQHLDVHTSQSPTQTEMEEAVEEHVATKTQLGHVQTELQDAESLQKDFEDAKAAAEEAKEKEKDLHAISAELQKEDSDEPTLKRKRTRTLKASQAAKIEPVPSEVKTKVQSGKGALRRIRGKDKEEKVKPPKPKCRCGISGSSNTLTTCRNSRCPCYKSYNSCAGCHCVCCKNPHKEDYVESDEDDDLEDFEMPKDVPEPMTQSEEPVVAEPRQEENSMAPPDSSAPISLVPLNNLQQSQHPLVLVQNEKGEYQGFNIFQGSKPLDPVTVGFTIRVQLQHTDGFGSLPQYAYIMPTIDPPNPPAPSLSPPPPPAPDREVIEPPAKKFRTSRTRRGRANFSALDTVDELVSGGSRSNSAAGDRSSATDNAHSLFEEIMSGSDDL
chain 2: MDKRFKWPPKKRANYLESPYPHIPSRGRQRNLHGHPNQTQHLHQHPGKIYERQQYGNGRGGHGGGNNNYRKLLHSLPAEHGGGAMAPPSSGGTVCAGADMVKLISENNNLRRMVMLNLNLMQEQTDSIAAKDKELDDQSAKMSVVKAQNEELKQAVAQLEAANQELCKQLRRKNQRRNDNDDDDDDPPLPPAAPQQKLIRCHAETQTVFREREQGTQTIDAQPQFANALPRGINMKESPALDHHAGAVTNQPASKRSESKGRGEFNGKKVSTFILQRMNQDFEHHIHEQTEVAEEHEMEAHKEQISQEEDQLVAEEDHLHMQEVHTEEVVGGDIFHDALESIEMEVVTEELVDMEEHGQSVDANGHIEEDDDEDDEDDENSDKDDDSEEDDYPWMHSDADVNARTEEELWQNQNYLLELDPTEEKTCAPSAHSTPNHQQKSSTQAEIRKEGNQNRITEKLLQLKPEPMVDALEAPILPKWVAFKKKDKEHESVPESPEVPKQQPHQEDAIVDHNAIKNQLEVPKPDLKPKDQPKDEQRQDGQLDVRVEPQEDVRKVQKETLKRQPEDAPKHLPKAVAPKVTKTSSRESTLPKANTADIKDAPAQKVIANHQSTKTQTDPVKTQRLQVKIRQYEMHPDMRTGSSAPSDIRKQKNVDPVSTPETKTIKSKSMLVNDKKTTSETSQSPDQEIDVETVRRKLAEHLKKELLSQSHSSQVTLKKIRERVATNLIYPPPSAPVSSTTITPAPTPSTTPTPGSTPQHAVTSSMDQEISAAKSKSKAAEQIATPLTPQSNSSVSSTTSTIRKTLNNCSPHTYSKATARSGKLQSRFRTATFPYSTRTWEDQEFHCDNEFFLEEADELLADNP
